Data from publication PMC4150532.
Blank lines part the entries; values can stand above or below the molecule they belong to.

Tests used:
[1] = target: T1, GST-Elp1 CTD (Saccharomyces cerevisiae) (UniProt Q06706); assay: EMSA; conditions: native tRNA modifications; 5' phosphate removed, then 5' 32P-labelled; 20 mM Tris-HCl pH 7.5, 150 mM NaCl, 2 mM MgCl2, 8% glycerol, 10 U Ribolock; 45 min at room temperature; 1.5% native agarose gel in 0.5x TBE
T1 sequence: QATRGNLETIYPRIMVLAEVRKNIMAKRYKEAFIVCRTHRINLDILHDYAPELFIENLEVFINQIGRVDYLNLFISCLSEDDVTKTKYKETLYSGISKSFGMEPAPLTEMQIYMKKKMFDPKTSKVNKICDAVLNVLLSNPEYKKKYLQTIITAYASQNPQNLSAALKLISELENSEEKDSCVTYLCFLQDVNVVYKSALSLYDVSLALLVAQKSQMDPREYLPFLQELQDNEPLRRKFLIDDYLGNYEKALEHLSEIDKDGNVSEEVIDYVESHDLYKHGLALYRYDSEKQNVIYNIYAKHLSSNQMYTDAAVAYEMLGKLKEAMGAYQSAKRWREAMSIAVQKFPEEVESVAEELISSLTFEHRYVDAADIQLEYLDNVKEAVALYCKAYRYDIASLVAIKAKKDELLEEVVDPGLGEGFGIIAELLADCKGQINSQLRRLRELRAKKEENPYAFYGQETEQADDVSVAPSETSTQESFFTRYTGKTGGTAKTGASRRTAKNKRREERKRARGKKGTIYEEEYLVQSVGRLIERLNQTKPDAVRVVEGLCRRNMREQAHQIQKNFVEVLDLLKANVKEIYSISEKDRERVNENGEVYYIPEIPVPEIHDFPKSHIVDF

[2] = target: Elp1–KR9A–GFP (GFP-tagged Elp1 basic region mutant, nine basic residues to alanine) (S. cerevisiae) (UniProt Q06706); assay: co-IP; GFP–Trap beads precipitate the GFP-tagged protein from yeast lysate; HA-tagged partners found by anti-HA blot and measured by densitometry; lysis buffer 50 mM HEPES-KOH pH 7.5, 150 mM NaCl, 2 mM MgCl2, 0.1% Triton X-100; 4°C

Molecule: total yeast tRNA (Sigma R9001)
Kd [1]: 0.55 µM

percent less co-precipitated than with wild-type Elp1–GFP (densitometry) [2]: 40%
B1: Kti12-3HA (HA-tagged Elongator accessory protein Kti12) (natural protein)
chain: MPLVLFTGYPCSGKTTLAKHLVQLLQSKIDATPSLSKYSITYHSDESLGIKHSDYITSQDERKLRSEIISAVKRDLSKNKIVIVDSLNYIKGFRYQLHCEVKNLSTTFCVIQTLCPPETIFEWNKTSNPNPWEPELLNQLIQRYEEPNSSNRWDSPLFAILTPQDNITDYIDDICKVVFQTSKSAKNSGHNDPLSKGLQKPNSATVLKPASQSNFIQVLDIETSKIIKTIMNHIKSLTSIGGVSNGTRVIVSEGITDINDDGCFFVDLPIGNVVTLAQLQRLKRQFINFNKLRDIDQDRIGPLFADYLNKNLN

percent less co-precipitated than with wild-type Elp1–GFP (densitometry) [2]: 30%
B2: Elp5-3HA (HA-tagged Elp5 subunit of Elongator) (natural protein)
chain: MASSSHNPVILLKRILSLTESSPFILCLDSIAQTSYKLIQEFVHQSKSKGNEYPIVYISFETVNKPSYCTQFIDATQMDFVHLVKQIISYLPAATATQAKKHMVIIDSLNYISTEYITRFLSEIASPHCTMVATYHKDIKDENRTVIPDWNNNYPDKLTLLQFMATTIVDIDVVLTGTLDTEEVSELLNEFRIPRGLNNDIFQLRLVNKRKSGRSLEYDFIVNSNTHEYELLSTTKQEEESSSNGLETPEMLQGLTTFNLGTSNKQKLAKDQVALPFLEAQSFGQGGAIVYEYEKDDDYDEEDPYEDPF
